Measurements reported in PMC6187371.

Assays:
[1] = target: duligotuzumab meFab; test: single molecule localization microscopy
[2] = target: duligotuzumab memAb; test: single molecule localization microscopy

meditope-Alexa Fluor 647 (peptide) was tested, and the stoichiometry N [1] was 1 and the stoichiometry N [2] was 2.
